Results: the nanobody polyreactivity screen of Harvey et al. (2022)

Test: yeast display, Sf9 membrane polyspecificity reagent, FACS + sequencing; frameworks hold sequencing errors
How it was run: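 Sorting gates, low and high (top ~1%), were placed on anti-HA fluorescence to track expression and on streptavidin fluorescence to track reagent binding. A clone's polyreactivity label is taken from the gate it came out of. The reagent was 10% biotinylated, detergent-solubilized Sf9 membrane, applied for 1 hour at 4 °C to galactose-induced yeast display cells.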

Sequence	polyreactivity (PSR sort gate)
QVQLVESGGGLVQAGGSLSLSCDASGRIIHSYAMGWYRQEPGKERELVAAISWSGTSTYYADSVKGRFTISRDNAKNTVYLQMNSLKPEDTEVYYCAARGRYVFDGYRMYFWGQGSQVTVSS	high polyreactivity
QVQLVESCGGLVQAGGSLRLSCAASGSTFSLYGMGWYRQAPAKERELVATITYSGGRTYYADSVKGRFTISLDNAKNTVYLQLNSLKPEDTAVYYCAARLAPLYRTYYYWGQGTQVTVSS	low polyreactivity
QVQLVESGGGVVQAGGSLRLSCAASGRTFGSNAMGWYRQAPGKERELVAGITTSGGSTNYADSVKGRFTISRDNAKNTVYLQMNSLKPEETAVYFCAVANYGIGYPHYIFDYWGQGTQVTVSS	low polyreactivity
QVQLVESGGGLVQAGGSLRLSCDASGFILYYNAMGWYRQAPGKEREMVAAITSGGGGTYYADSVKGRFTNSRDNAKNTVYFQMNSLNPEDTAVYYCNTRFGYRGGVDFDYWGQGTQVTVSS	high polyreactivity
QVQLVESGGGLVQAGCSLRLSCAASGITFELYAMGSYRQAPGKERELVAAISSNGGITFYADSVKGRFTISRDYAKNTVYLQMKSLKPEDTEVYYCAARYVRYPRYDYWGQGTQVTVSS	high polyreactivity
QVQLGESGGGLVQAGGSLRLICAASGSIFDVNAMGWYRQAPGKERELVAAISDSGGSTYYADSVKGRFTISRDNAKNTVYLQMNSLKPEDTAVYYCNADWSWYNYDDFDYWGQGTQVTVSS	low polyreactivity
QVQLVESGGGLVQAGGSLRLSCAASGGIFDRYAMGWYRQAPGKERELVAGITWSGGRTYYADSVKGRFTISRDNAKNTVYLQMNSLKPEDTAVYYCAASLYTWTYQPVYYRDGYWGQGTQVTVSS	low polyreactivity
QVQLVESGGGLVQAGGSLRLSCAASGIIFWYYAMGWYRQAPGKERELVAAISQSGGSTYYADSVKGRFTISRDNAKNTVYLQMNSMKPEDTAVDYCAAKPFYWSLEYDYRGQGTQVTVSS	high polyreactivity
QLQLVESGGGLVQAGGSLRLSCAASGYTIIQYAMGWYRQAPGKERELVAGITWSGGSTYADSVKGRFSISRDNAKNTVYLQMNSLKPEDTAVYYCAADDRDIYQYGTPYGSGIRYDYWGQGTQVTVSS	low polyreactivity
QVQLVESGGGLVQAGGSLRLSCAASGFIFPRYFMGLYRQAPGKERELVAAINSDISTNYADSVKWRFTISRDNAKNTVYLQMNSLKPEDTAVYYCAADRWDDPWEFDYWGQCTQVTVSS	low polyreactivity
QVQLVESGGGLVQAGGSLSLSCAASGSILFTNAMGWYRQAPGKERELVAAISSGGSTYYADSVKGRFTISRDNAKNTVYLQMNSLKPEDTAVYYCAASDHYRWYVHRWEDPFYYWGQGTQVTLSS	low polyreactivity
HFQLVEAGGGLVQAGGSLSLSCADSGRTYSHYAMGWYSQAPAQVRELVAGISSGSRTNYADSVKGRFTISRDNAKNTVYLQMNSLKPEDTAFYYCAARTNYLKGGYWGQGTQVTVSS	high polyreactivity
QVQLVESGGGLVQAGGSLRLSCAASGNTFVANDMGWYRQAPGKERELVAVISGSGGDTYYADSVKGRFTISRDNAKNTVYLQMNSLKPEDTAVYYFAADWYGRETDRSDSDYEYWGQGTKVTVSS	low polyreactivity
QVQLVESGGGLVQAGGSLRLSCAASGRTMGQNVMGLYRQAPGKERELVAAISSNTAGNTYYADSVKGRFTISRDNAKNTVYLQMNSLKPEDTAVYYCAKVDSFEAKLDYWGQGTQVTVSS	low polyreactivity
RLVQAGGSLRLSCAASGRIFGTYAMGWYRQAPGKERELVAAITQSGGRTYYADSVKGRFTISRDNAKNSVYLQMNSLKPEDTAVYYCNKVTYRGIGLGYDYWGQGTQVTVSS	high polyreactivity
QVQHVESGGGLVQAGGSLRLSSAASGRIFPINAMGWYRQAPGKERELVAAISYSGGSTYYADSVKGRFTISRDNAKNTVYLQMNSLKPEDTAVFYCNARYPYSYYHRYYYWGQGTQVTVSS	high polyreactivity
QVQLVESGGGLVQAGGSLRLSCAASGFTFNCYAMGWYRQAPGKERELVARIRWRGSTYYADSVKGRFTISRDNAKNTVYLQMNSLKPEDTAVYYCAARYYTKLYWGQGTQVTVSS	high polyreactivity
QVQLVESGGGLVQAGGSLRLSCAASGRIFGVYAMGWYRQAPGKERELVAAITRGASTYYADSVKGRFTISRDNAKNTVYLQMNSLKPEDCAVYYCAVSQYRGIYRMDYWGQGTQVTVSS	high polyreactivity
QVQHVESGGGLVQAGGSLLLSCAASGSTFARYAMGWYRQPPGKERELVAAISRSGSNTYYADSVKGRFTISRDNAKNTVYLQMNSLKPEDTAVYYCNRTHRQSFSKLDYWGQGTQVTVSS	high polyreactivity
QVQLVESGGGLVQAGGSLRLSCAASGSTFTFYAMGWYRQAPGKQRELVATISSSGVSTSYADSVKGRFTISRDNAKNTVDLEMNSLKPEDTAVYYCNAGYRRRFIFDYWGQGTQVTVSS	low polyreactivity
QVQLVESGGGLVQAGGSLRLSCAASGSISGYNAMGWYRQAPGKERELVAAISWAGGITRYADSVKGRFTISRDNAKNPVYLQMNSLKPEDTAVYYCAADQTYERHWVYYWGQGTQVTVSS	low polyreactivity
QVQLVESGGALVQAGGSLRLSCAASGYTSILYAMGWYRQAPGKEMELVASITKSGDDTYYADSVKGRFTISRDNAKNTVYLQMNSLKPEDTAVYYCAAEYTYGDYSYVWYDYWGQGTQVTVSS	high polyreactivity

Sequence	polyreactivity (PSR sort gate)
QVQLEESGGGLVQAGGSLRFSCAASGSIMTRNAMGWYRQPTGKEMELVAAITGSGGRTYYADSVKGRFSISRDNAKKTFFLQMTSLIPEDTAVYYCATRYGREDYWGQGTQVNVSS	high polyreactivity
QVQLVESGGGLVKAGGSLRLSCAASGSTFDYYAMGWYRQAPGKERELVAAISGSGGSTYYADSVKGRFTISRDIAKNTVYLQMNSLKPEDTAVYYCATVRSRLFGQYYYWGQGTQVTVSS	high polyreactivity
QVQLVESGGGLVQAGGSLGLTCAASGSIFYGYAMAWYRPAPGKERELVAAISSSGGNTYYADSVKGRFTISRDNAKNTVYLQMNSLKPEDTAVYYCNKVYYQVKYDYWGQGTQVSVSS	low polyreactivity
QVQLVESGGGLVQAGGSLRLSCAASGRIFSTYAMGWYRQAPGKERELVAAISWRGSSTYYADSVKGRFTISRDNAKNTVYLQMNSLKPEDTAVYYCNADKANRYDWGQGTQVTVSS	high polyreactivity
QVQLEDSGGGLVQAGGSLRLSCAASGSTWVYAMGWYRQAPGTERELVASITVSGGSTYYADSVKGRFTISRDNAKNTVYLQMNSLKPEDTAVYYCAAYDSYRKFKYWRQGTQVTVSS	high polyreactivity
QVQLVESGGGLVQAGGSLRLSCAASGRIFRVNAMGWYRQAPGKERELVAAISGRGGSTYYADSVKGRFTISRDNANNTVYLQMNSLKPEDTAVYYCAKKSFSYGYNSYDYWGQGTQVTVSS	high polyreactivity
QVQLVESGGGLVQAGGGLRLSCAASGSIFLINAMGWYRQAPGKERELVAAITSGSSTNYADSVKGRFTISRDNAKNTVYLQMNSLKPEDTAVYYCAASTPYSYRYDYWGQGTQVTVSS	low polyreactivity
QVQLVESGGGLVQAGGSLRLSCAASGFIFATNTMGWYRQAPGKERELVAASSTYYADSVKGRFTISRDNAKNTVYLQMNSLKPEDTAVYYCNADRDSYIGFDLSESDYWGQGTQVTVSS	low polyreactivity
QVQLVESGGGLVQAGGSLRVSCAASGRTFGPYAMGWYRQAPGKERELVAAINSGDRTYYADSVKGRFTISRDNAKNTVYLQMNSLKQEDTAVYYCNARSRRPDDYWGQGTQVTVSS	low polyreactivity
QVQLVESGGGLVQAGGTLRLSCAASGFTFYSNTMGWYRQAPGKERELFAAITRTGVSTYYADSVKGRFTISRDNAKNTVYLQMNSLKPEDTAVYYCAALVKGQGTVHRYYYLGQGTQVTVSS	high polyreactivity
QVQLVESGGGLVQAGGSLRLSCAASGSILQYKAMGWYRQAPGKERELVADITSSGGSTYYADSVKGRFTISRDNAKYTVSLQMNSLKPEDTAVYYFAKDTHWAYYWGQGTQVTVSS	low polyreactivity
QVQLVASGGGLVQAGGSLRLSCAASGRNFRSYVMGWYRQAPGKERDLVATITRSGGGTTYADSVKGRFTISRDNAKNTVYLHMKSLKAEDTAVYYCNAERRYSWYSQGDYWGQGTQVTVSS	high polyreactivity
QVQLVESGGGLVQAGGSLRLSCAASGYIFPPYAMGWYRQAPGKERELVATMTGIGGSTDYADSVKGRFTISRDNAKNTVYLQMNSLKPEDTAVYYCAARRDGYGTHYDYWGQGTQVTVSS	low polyreactivity
QVQLVESGGGLVQAGGSLRLSCAASGFIFRYYAMGWYRQAPGKERELVAAITKSGGRTFYADSVKGRFTISRDNAKNTVYLQMNSLKPEDTAVYYCAARANGRDDYWGQGTQVTVSS	high polyreactivity
QVQLVESGGGLVQAGGSLRLSCAASGRTFEYYAMGWYRQAPGKERELVAGISWSGGSTYYADSVKGRFTISRDNAKNTVYLQMNSLKPEDTAVYYCNARYLPRSTIYDYWGQGTQVTVSS	high polyreactivity
QVQLVESGGGLVQAGGSLRLSCAASGSIFNGYDMGWYRQAPGKERELVAAISLSGDSTYYADSVKGRFTISRDNAKNTVYLQMNSLKPEDTAVYYCAAADYFRSYWGQGTQVTVSS	low polyreactivity
QVQHVESGRGLVQAGRSLRLSCAASGRIFQRYAMGWYRQAPGKERELVAVITKRGGNTYYADSVKGRFTISRDNAKNTVYLQMNSLKPEDTAVYYCASRSGRSTGDYWGQGTQVTVSS	high polyreactivity
QVQLVESGGRLVQAGGSLRLSCAASGRIFNRYAMGWYRQAPGKERELVAAITRGGSTYYADSVKGRFTMSRDNAKITVYLQMNSLKPEDSAVYYCAGRVGYPYYYWGQGTQVTVSS	high polyreactivity
QVQLVESGGGLVQAGGSLRLSCAASRRIFLWYAMGWYRQAPGKERELVASITRSGVTTYYADSVKGRFTISRDKAKNTVYLQMNSLKPEDTAVYYCNKDFRGDAIKLDVNYWGQGTQVTVSS	low polyreactivity
QVQLVESGGGLVQAGGSLRLSCAASGFTFYTYMGWYRQAPGKERELVAAISWSGDSTYYADSVKGRFTISRDNAKNTVYLQMKSLKPEDTAVYYCAARRVFYNGYYVNVGSFYYWGQGTQVTVSS	low polyreactivity
QVQLVESGGGLVQAGGSLRLSCAASGFTFYRYAMGWYRQAPGKERELVATISASGGSTYYADSVKGRFTISRDNAKNTVYLQMNSLKPEDTAVYYCAAEHYLWGYVVVREDYWGQGTQVTVSS	high polyreactivity
